Consider four molecules from US20190225690A1 (CROWN BIOSCIENCE TAICANG, published 2019).

The target of assay [1] is T1, human CTLA4 on hCTLA4-293T cells (human, UniProt P16410 36-223).
T1 construct: whole, on cells
T1 sequence (looked up): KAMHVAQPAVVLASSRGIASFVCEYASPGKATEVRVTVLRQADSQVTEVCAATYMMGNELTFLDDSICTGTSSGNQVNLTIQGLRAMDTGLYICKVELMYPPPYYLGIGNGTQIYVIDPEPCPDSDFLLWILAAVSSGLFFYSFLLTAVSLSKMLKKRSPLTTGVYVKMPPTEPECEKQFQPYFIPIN
The experiment in a line: FACS on hCTLA4-293T cells, purified murine antibody. The protocol:
(§1) The cells were incubated with the indicated antibody (20 μg/ml with the dilution of 1/5) at 4° C. for 1 hour. Cells were washed three times with FACS buffer. A secondary antibody (PE Goat anti-mouse: 1:200; PE mouse anti-human: 1:10) was added to the cells at 100 μl/well, and incubated at 4° C. for 40 min. Cells were washed three times with FACS buffer and analyzed by FACS Array.
(§2) The purified hybridoma antibodies were characterized further based on ELISA and FACS analyses. The methods applied were similar to those described above in Example 2 except that in these cases, purified antibodies were used to measure EC50 and IC50.

In assay [2] the target is T2, human CTLA4-hFc (human).
T2 construct: Extracellular domain of human CTLA4 fused with a human Fc tag; also called hCTLA4-hFc
Put plainly: ELISA, purified murine antibody on coated human CTLA4-hFc. The protocol: ELISA binding analysis was conducted using human CTLA4-hFc. 96-well plates (Costar, Cat No: 9018) were coated with 100 μl of 2 μg/ml CTLA4-hFc (CrownBio) in coating buffer (PBS, Hyclone, Cat No: SH30256.01B) overnight at 4° C. The wells were aspirated and non-specific binding sites were blocked by adding 200 μl of blocking buffer with 1% (w/v) of bovine serum albumin (BSA, Roche, Cat No: 738328) and incubating for 1 hour at 37° C. After the plates are washed three times with wash buffer (PBS with 0.05% (v/v) TWEEN-20™ (Sigma, Cat No: P1379)), 100 μl/well of a suitable dilutions of hybridoma supernatant in blocking buffer were added and incubated at room temperature for 1 hour. The plates were washed and incubated with 100 μl/well of Goat anti-Mouse IgG (H+L) (Thermo, Cat No: 31432) in blocking buffer for 60 min. After the plates were washed, 100 μl/well of substrate solution TMB (eBioscience, Cat No: 00-4201-56) was added and the plates were incubated for 2 min at room temperature. 100 μl/well of stop solution (2N H₂SO₄) was added to stop the reaction. The colorimetric signals were developed and read at 450 nm using a Auto Plate SpectraMax Plus (Supplier: Molecular Devices; Model: MNR0643; Software: SoftMax Pro v5.4). Through this method, hybridoma cell lines that produce antibodies highly specifically binding to the human CTLA4 protein were repeatedly selected. […]
(In general: An ELISA detects its analyte on a solid surface through an enzyme-linked reagent.)

The target of assay [3] is mouse CTLA4 (mouse, UniProt P09793 36-161, limits assumed). The experiment in a line: protein based ELISA and other assays, not named.
In assay [4] the target is T3, human CTLA4 (construct not stated) (human, UniProt P16410 36-161, limits assumed).
T3 sequence (looked up): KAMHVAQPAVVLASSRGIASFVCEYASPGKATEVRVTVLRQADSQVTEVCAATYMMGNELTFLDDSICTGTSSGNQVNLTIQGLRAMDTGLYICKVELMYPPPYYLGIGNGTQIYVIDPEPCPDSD
The experiment in a line: SPR (Biacore 3000), antibody captured by anti-mouse Fc mAb, CTLA4 as analyte. How it is done:
(§3) To further characterize the binding characteristics of the antibodies, the hybridoma antibodies were profiled using Biacore (Biacore 3000, GE) to elucidate binding kinetics and calculate equilibrium binding constants. This assay was performed by capture method, using the mouse antibody capture kit (BR-1008-38, GE). After diluting anti-mouse Fc mab to 25 μg/ml in pH 5.0 immobilization buffer, immobilization was conducted with the parameters shown in Table 9 at a flow rate of 5 μl/min. The kinetic runs were done by 1) injecting ligand for typical 0.5-1 min at flow rate of 10 μl/min.; 2) injecting analytes of choice for typical 3 min followed by dissociation in running buffer (1×PBS-P20) for typical 5-10 min at flow rate of 30 μl/min.; and 3) injecting regeneration solution 10 mM Glycine pH 1.7 for typical 1-2 min at flow rate of 10 μl/min.
A general note: In SPR one partner is held on a chip, and binding of the other changes the refractive index at the surface.

The target of assay [5] is T4, human CTLA4-mFc (human).
T4 construct: Extracellular domain of human CTLA4 fused with mouse Fc; also called hCTLA4-mFc
The experiment in a line: ELISA blockage of biotinylated CD80-mFc binding to coated human CTLA4-mFc. How it is done:
(§4) ELISA based ligand blockage analysis was conducted via blocking biotinylated human CD80-mFc from binding to human CTLA4-mFc. CTLA4-mFc antigen (CrownBio) was suspended in PBS (Hyclone, Cat No: SH30256.01B) buffer (2 μg/ml, 100 μl/well) and coated on the 96 well plate (Costar, Cat No: 9018) 4° C. overnight. Plates were washed 3 times using washing buffer: PBS+0.05% Tween 20 (Sigma, Cat No: P1379). 200 μl of blocking buffer (PBS+1% BSA (Roche, Cat No: 738328)) was added to each well, incubated at 37° C. for 1 hour, and washed 3 times. Various concentrations (suitable dilutions of hybridoma supernatant in PBS) of the anti-CTLA4 antibodies were added to the wells (100 μl/well) and incubated at 37° C. for 1 hour. Ligand was added (0.1 μg/ml CD80-mFc-biotin, 100 μl/well), incubated at 37° C. for 2 hours, and washed 3 times. Secondary antibody (Avidin HRP, eBioscience Cat No: E07418-1632, 1:500, 100 μl/well) was added, incubated at 37° C. for 0.5 hour, and washed 3 times. TMB (Sigma, Cat No: T0440, 100 μl/well) was added, and incubated for 3 min at room temperature. To stop the reaction, 2N H₂SO₄ (100 μl/well), was added. The colorimetric signals were developed and read at 450 nm using an Auto Plate SpectraMax Plus (Supplier: Molecular Devices; Model: MNR0643; Software: SoftMax Pro v5.4).
The purified hybridoma antibodies were characterized further based on ELISA and FACS analyses. […]

In assay [6] the target is T1, human CTLA4 on hCTLA4-293T cells. The experiment in a line: FACS blockage of biotinylated human CD80 binding to hCTLA4-293T cells. How it is done:
(§5) Various concentrations of the testing hybridoma antibodies were added to the cell suspension and incubated at 4° C. for 60 minutes in 96 well plates. Biotin-labeled CD80 protein was added into the wells and incubated at 4° C. for 60 minutes. […] Flow cytometric analyses were performed using a FACS Array.
as §2

Assay [7] shares this target. Put plainly: FACS on hCTLA4-293T cells, humanized antibody. The protocol: as §1
(§6) After generation and purification of humanized 6F3-hIgG1 and 10B10-hIgG1 antibodies, the binding and specificity of the antibodies were determined using ELISA-based binding and CTLA4/CD80 blockage analyses, as well as FACS-based binding and CTLA4/CD80 blockage analyses. The methods used were similar to those described above in EXAMPLE 4.

Assay [8] shares this target. Put plainly: FACS blockage of biotinylated human CD80 binding to hCTLA4-293T cells. The protocol: as §5, §6
This is another data set of the same source.

Assay [9] concerns the target T3, human CTLA4 (construct not stated). Put plainly: SPR (Biacore 3000), capture method as in Example 5, CTLA4 as analyte. How it is done:
as §3
The binding kinetics between CTLA4 and humanized CTLA4 antibodies were measured by Biacore3000 as described in Example 5. The dissociation constant, KD, was calculated from the determined rate constants by the relation KD=kd/ka.

Assay [10] addresses T2, human CTLA4-hFc. Put plainly: ELISA, humanized antibody on coated human CTLA4.
For assay [11], the target named is T4, human CTLA4-mFc. The experiment in a line: ELISA blockage of biotinylated CD80-mFc binding to coated human CTLA4-mFc. The protocol: as §4, with “Secondary antibody (Avidin HRP, eBioscience Cat No: E07418-1632, 1:500, 100 μl/well) was added, incubated at 37° C. for 0.5 hour, and washed 3 times. TMB (Sigma, Cat No: T0440, 100 μl/well) was added, and incubated for 3 min at room temperature. To stop the reaction, 2N H₂SO₄ (100 μl/well), was added.” left out
After generation and purification of humanized 6F3-hIgG1 and 10B10-hIgG1 antibodies, the binding and specificity of the antibodies were determined using ELISA-based binding and CTLA4/CD80 blockage analyses, as well as FACS-based binding and CTLA4/CD80 blockage analyses. […]
This is another data set of the same source.

Read-outs that look alike come from different tables or passages of the source.

B1: 10B10 murine (antibody, V domains shown)
VH: DVQLQESGPGLVTPSQSLSLTCSVTGYSITSGYSWNWIRQFPGNKLEWMGYIRFDGNNNYNPFLKNRISITRDTSENQFFLKLNSVTTEDTATYYCARNYGTWGAMDFWGQGTSVTVSS
VL: DIVLTQSPSSLSASLGGKVTITCKTSQDINKYMAWYQHKPGKGPRLLIYYTSILQPGIPSRFSGSGSGTDYSFSINNLEPEDIATYYCQQYDNLNTFGGGTMLEIK
notes: Mouse monoclonal antibody purified from hybridoma supernatant on Protein G; also called murine antibody 10B10; anti-CTLA4 hybridoma antibody 10B10
Usually EC50 stands for the concentration giving half of the maximal effect. Usually Kd stands for the equilibrium constant for the complex coming apart. Lower therefore signals higher affinity. For orientation: koff means the rate constant with which the complex falls apart. What is called kon is the rate constant with which the complex forms. Higher therefore signals fast association. A word on the IC50: it is the midpoint of a concentration-inhibition curve. Lower therefore signals higher potency. As to B1, the EC50 in assay [1] turned out to be 0.305 mg/L. For the same molecule, the EC50 in assay [2] was 0.0127 mg/L. The binding result in assay [3] is listed as “no binding”. Besides, in assay [4], binding was put at a Kd of 0.219 nM, the koff was 0.000152 s⁻¹ and the kon was 693000 M⁻¹ s⁻¹. The molecule further had an IC50 in [5] of 0.594 mg/L. Also, the IC50 in assay [6] was found to be 0.511 mg/L.

B2: 10B10 humanized (antibody, human IgG1, kappa, V domains shown)
VH: QVQLQESGPGLVKPSQTLSLTCAVSGYSITSGYSWNWIRQPPGKGLEWMGYIRFDGNNNYNPFLKNRITISRDTSKNQFSLKLSSVTAADTAVYYCARNYGTWGAMDFWGQGTLVTVSS
VL: DIQLTQSPSSLSASVGDRVTITCKTSQDINKYMAWYQQKPGKAPKLLIYYTSILQPGVPSRFSGSGSGTDYTFTISSLQPEDIATYYCQQYDNLNTFGGGTKVEIKR
notes: Humanized IgG1, expressed in Freestyle 293 cells; also called h10B10-IgG1; humanized 10B10-hIgG1
As to B2, the response in [7] was half-maximal at 5.28 mg/L (EC50). This molecule also returned an IC50 in assay [8] of 0.0253 mg/L. For the same molecule, in [9], binding was characterised by a dissociation constant (Kd) of 0.273 nM, the koff came to 0.000113 s⁻¹ and the kon was 414000 M⁻¹ s⁻¹. In assay [10], this molecule showed an EC50 of 0.00293 mg/L. The half-inhibitory concentration (IC50) in assay [11] was 0.285 mg/L.

B3: 6F3 murine (antibody, V domains shown)
VH: QVKLQESGAELVRPGASVTLSCKASGYTFTDYEMHWMKQTPVHGLEWIGVIDPETGGITYNQKFKGKATLTADKSSSTAYMEFLSLTSEDSAVYYCTRRGARATVYNYVMDYWGQGTSVTVSS
VL: DIVMTQTTASLSASVGETVTITCRASENIHNYLAWYQQKQGRSPQLLVYNAKTLGDGVPSRFSGSGSGTQYSLKINSLQPEDFGSYYCQHFWSTPWTFGGGTKLEIK
notes: Mouse monoclonal antibody purified from hybridoma supernatant on Protein G; also called murine antibody 6F3; anti-CTLA4 hybridoma antibody 6F3
With B3, the EC50 stood at 1.18 mg/L in assay [1] and 0.025 mg/L in assay [2]. In assay [3], the binding result is on record as “no binding”. For the same molecule, in assay [4], binding was characterised by a dissociation constant (Kd) of 0.409 nM. The same molecule yielded an off-rate (koff) in assay [4] of 0.000244 s⁻¹. This molecule registered an on-rate (kon) in assay [4] of 598000 M⁻¹ s⁻¹. Further, the IC50 in assay [5] and in assay [6] was 0.526 mg/L throughout.

B4: 6F3 humanized (antibody, human IgG1, kappa, V domains shown)
VH: QVQLVQSGAEVKKPGSSVKVSCKASGYTFTDYEMHWVRQAPGQGLEWIGVIDPETGGITYNQKFKGRATLTADKSTSTAYMELSSLRSEDTAVYYCTRRGARATVYNYVMDYWGQGTLVTVSS
VL: DIQMTQSPSSLSASVGDRVTITCRASENIHNYLAWYQQKPGKAPKLLVYNAKTLGDGVPSRFSGSGSGTDYTLTISSLQPEDFATYYCQHFWSTPWTFGGGTKVEIKR
notes: Humanized IgG1, expressed in Freestyle 293 cells; also called h6F3-IgG1; humanized 6F3-hIgG1
With B4, the EC50 in [7] was found to be 2.33 mg/L. Besides, the IC50 in assay [8] is 0.435 mg/L. In assay [9], this molecule showed a Kd of 0.441 nM, a koff of 0.00013 s⁻¹ and a kon of 295000 M⁻¹ s⁻¹. Also, the EC50 in [10] came out at 0.00201 mg/L. The IC50 in [11] was 0.295 mg/L.
